Assay in all cases: UV-vis
Holding throughout (details): not stated (1 mM each of sodium phosphate, sodium citrate and sodium borate; 0.1 mM EDTA; no added salt mentioned), Polybuffer: 1 mM each of sodium phosphate, with 0.1 mM EDTA. Starting pH 9.3, titrated with 25 mM HCl., Reduced (DTT-treated, desalted) active-site dithiol form, folded, 10-25 µM protein, the oxidised (diamide) protein served as reference

The target in data set [1] is Cys12 (UniProt position 12, YAQPDCPPCVI).
The target of data set [2] is Cys12 (UniProt position 12, YTQPDCPPCVI).
Data set [3] has as its target Cys15 (UniProt position 15, PDCPPCVIVKE).

For “Thioredoxin BC3987 T8A mutant (Bacillus cereus ATCC 14579; T8A)”, the pKa in data set [1] is on record as 7.2.

As to “Thioredoxin BC3987 (NrdH/Cp9-like small thioredoxin, C-P-P-C active site) (Bacillus cereus ATCC 14579)”, the pKa in data set [2] came out at 7.2; in data set [3], 5.1.

Usually pKa stands for the negative logarithm of the acid dissociation constant.

The record behind these values is paper PMC3720550.
